Values of other authors as cited in paper PMC9027846.
pKd: −log10 of the molar value.

Target: Plasmin (Homo sapiens) (UniProt P00747)
Experiment: BLI

Sequence of UniProt P00747 (P00747 581-810): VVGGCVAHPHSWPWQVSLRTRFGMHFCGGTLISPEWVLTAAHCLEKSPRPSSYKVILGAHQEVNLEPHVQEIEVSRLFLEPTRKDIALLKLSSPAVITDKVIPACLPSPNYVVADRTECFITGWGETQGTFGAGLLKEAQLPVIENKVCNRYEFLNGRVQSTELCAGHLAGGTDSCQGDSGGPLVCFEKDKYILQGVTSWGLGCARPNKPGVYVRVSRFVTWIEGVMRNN

In the case of AaTI (from UniProt Q177W0), the pKd is given as 7.20.
